# Numbering of substitutions follows the chain as printed.
# B1: suPAR_DB02_H01 (scFv, V domains shown)
# VH: QVQLVQSGAEVKKPGASVKVSCKASGYTFTGQYIHWVRQAPGQGLEWMGWIDHSGGSTIYDQKFQGRVTMTRDTSTSTVYMELSSLRSEDTAVYYCAGGYDVDWFVYWGQGTLVTVSS
# VL: DIQMTQSPSSLSASVGDRVTITCSARSSVSYMYWYQQKPGKAPKLLIYRTSSLASGVPSRFSGSGSGTDFTLTISSLQPEDFATYYCQQYHSYPPTFGGGTKVEIK
# notes: scFv clone from phage display
# B2: suPAR_DB02_E10 (scFv, V domains shown)
# VH: B1 VH with G31N, Q32Y, Y33F, I34M, S54E, G55N, S57N, G98R
# VL: B1 VL with S52N
# notes: scFv clone from phage display
# B3: suPAR_DB02_F02 (scFv, V domains shown)
# VH: B1 VH with G31D, Q32Y, I34M, H53P, S54E, G55N, S57N, G98R
# VL: B1 VL with S52N, A54Q
# notes: scFv clone from phage display
# B4: suPAR_DB02_G01 (scFv, V domains shown)
# VH: QVQLVQSGAEVKKPGASVKVSCKASGHTFTDYYMHWVRQAPGQGLEWMGWISPNSGGTNYAQKFQGRVTMTRDTSTSTVYMELSSLRSEDTAVYYCARGYDVDWFVYWGQGTLVTVSS
# VL: B1 VL with S52N
# notes: scFv clone from phage display
# B5: suPAR_DB02_G12 (scFv, V domains shown)
# VH: B1 VH with Y27F, T28N, F29I, T30K, G31D, Q32Y, H53P, S54E, G55N, G98R
# VL: B1 VL with R26S, A54Q
# notes: scFv clone from phage display
# B6: suPAR_DB02_H03 (scFv, V domains shown)
# VH: B1 VH with G31T, Q32Y, I34M, H53P, S54E, G98R
# VL: B1 VL with S52N
# notes: scFv clone from phage display
# B7: suPAR_DB02_H05 (scFv, V domains shown)
# VH: B4 VH with H27Y, T28F, D31A, S52D, N54E, S55N, G57N, N59I, A61D
# VL: B1 VL with S52N
# notes: scFv clone from phage display
# B8: suPAR_DB02_E12 (scFv, V domains shown)
# VH: B1 VH with G31S, Q32N, I34M, S54E, G55N, S57N, G98R
# VL: B1 VL with R26S, S27Q, S52N
# notes: scFv clone from phage display
# B9: suPAR_DB02_G03 (scFv, V domains shown)
# VH: B4 VH with H27Y, D31S, S52D, N54E, S55N, G57N, N59I, A61D
# VL: B1 VL with R26S, S27Q, S52N
# notes: scFv clone from phage display
# B10: suPAR_DB02_G07 (scFv, V domains shown)
# VH: B1 VH with G31S, Q32Y, I34M, H53P, S54E, G55N, G98R
# VL: B1 VL with R26S, S27Q, S52N
# notes: scFv clone from phage display
# B11: suPAR_DB02_G08 (scFv, V domains shown)
# VH: B4 VH with H27D, D31S, S52D, P53H, N54E, S55G, G57N, N59S, A61E
# VL: B1 VL with S52N
# notes: scFv clone from phage display
# B12: suPAR_DB02_F03 (scFv, V domains shown)
# VH: B1 VH with G31S, Q32Y, I34V, H53P, S54E, G98R
# VL: B1 VL with A54Q
# notes: scFv clone from phage display
# B13: suPAR_DB02_F10 (scFv, V domains shown)
# VH: B4 VH with H27Y, D31T, S52D, N54E, S55G, G57N, N59S, A61D
# VL: B1 VL with S52N
# notes: scFv clone from phage display
# B14: suPAR_DB02_G02 (scFv, V domains shown)
# VH: B1 VH with G31R, Q32Y, I34M, S54E, G55N, D61A, G98R
# VL: B1 VL with A54Q
# notes: scFv clone from phage display
# B15: suPAR_DB02_G06 (scFv, V domains shown)
# VH: B1 VH with G31N, Q32Y, I34M, S54E, D61A, G98R
# VL: B1 VL with V29I, S52N
# notes: scFv clone from phage display
# B16: suPAR_DB02_G04 (scFv, V domains shown)
# VH: B1 VH with Y27H, Q32Y, S54E, G55N, S57N, G98R
# VL: B1 VL with S52N
# notes: scFv clone from phage display
# B17: suPAR_DB02_F05 (scFv, V domains shown)
# VH: B1 VH with Q32N, I34M, H35Q, S54E, G55N, S57N, G98R
# VL: B1 VL with S52N
# notes: scFv clone from phage display
# B18: suPAR_DB06_F07 (scFv, V domains shown)
# VH: B1 VH with G31N, Q32Y, I34M, S54E, G55N, S57N, G98R
# VL: B1 VL with S52N
# B19: suPAR_DB06_E02 (scFv, V domains shown)
# VH: B1 VH with T28S, G31N, Q32Y, I34M, S54E, G55N, S57N, G98R
# VL: B1 VL with S52N
# B20: suPAR_DB06_C12 (scFv, V domains shown)
# VH: B1 VH with T28S, G31A, Q32N, S54E, G55N, S57N, G98N
# VL: B1 VL with S52N
# B21: suPAR_DB06_D11 (scFv, V domains shown)
# VH: B4 VH with H27Y, T30A, D31N, M34V, M48V, W50M, S52D, N54G, S55G, G57T
# VL: B1 VL with S24R, S27Q, S52N
# B22: suPAR_DB06_C11 (scFv, V domains shown)
# VH: B1 VH with G31N, Q32Y, I34M, S54E, G55N, S57N, G98R
# VL: B1 VL with S27Q, S52N
# B23: suPAR_DB06_D08 (scFv, V domains shown)
# VH: B4 VH with H27Y, D31N, S52D, N54E, S55G, G57N, N59S, A61D
# VL: B1 VL with S52N
# B24: suPAR_DB06_E03 (scFv, V domains shown)
# VH: QVQLVQSGAEVKKPGASVKVSCKASGFNIKDYYIHWVRQAPGQGLEWMGWIDPENGNTSYDQKFQGRVTMTRDTSTSTVYMELSSLRSEDTAVYYCARGYDVDWFVYWGQGTLVTVSS
# VL: B1 VL with S52N
# B25: suPAR_DB06_C03 (scFv, V domains shown)
# VH: B4 VH with H27Y, D31S, S52D
# VL: B1 VL with S52N
# B26: suPAR_DB06_B11 (scFv, V domains shown)
# VH: B1 VH with G31S, Q32N, S54E, G55N, S57N, G98E
# VL: B1 VL with S24R, S27Q, S52N
# B27: suPAR_DB06_D02 (scFv, V domains shown)
# VH: B1 VH with G31S, Q32N, I34M, S54E, G55N, S57N, G98R
# VL: B1 VL with R26S, S52N
# B28: suPAR_DB06_D05 (scFv, V domains shown)
# VH: B1 VH with Y27G, Q32Y, I34M, H53P, S57N, G98R
# VL: B1 VL with S27Q, S52N
# B29: suPAR_DB06_B10 (scFv, V domains shown)
# VH: B4 VH with H27D, F29L, D31N, S52D, P53H, N54E, S55N, G57S, N59I
# VL: B1 VL with S52N, A54Q, S55T
# B30: suPAR_DB06_D10 (scFv, V domains shown)
# VH: B4 VH with H27Y, D31S, S52D, N54E, S55N, G57N, N59I
# VL: B1 VL with S52N
# B31: suPAR_DB06_C06 (scFv, V domains shown)
# VH: B24 VH with F27Y, N28T, I29F, K30S, D31N, I34M, P53H, N55G, D61A
# VL: B1 VL with S52N
# B32: suPAR_DB06_D09 (scFv, V domains shown)
# VH: B4 VH with H27G, D31S, S52D, P53H, N54E, S55N, G57S, N59I
# VL: B1 VL with R26S, S52N
# B33: suPAR_DB06_C09 (scFv, V domains shown)
# VH: B24 VH with F27Y, N28T, I29F, K30T, D31S, I34M, S59I
# VL: B1 VL with S24R, S52N
# B34: suPAR_DB06_C07 (scFv, V domains shown)
# VH: B4 VH with H27Y, D31N, S52D, S55G, N59Q
# VL: B1 VL with S52N
# B35: suPAR_DB06_D12 (scFv, V domains shown)
# VH: B24 VH with F27G, N28T, I29F, K30S, D31S, I34M, S59I, D61A
# VL: B1 VL with S27Q
# B36: suPAR_DB06_C01 (scFv, V domains shown)
# VH: B1 VH with Q32Y, I34M, H53P, G55N, S57N, G98R
# VL: B1 VL with S27Q, V29I, S52N
# B37: suPAR_DB06_D06 (scFv, V domains shown)
# VH: B4 VH with H27Y, D31N, S52D, N54E, S55N, G57N, N59I
# VL: B1 VL with S52N
# B38: suPAR_DB06_E04 (scFv, V domains shown)
# VH: B24 VH with F27D, N28T, I29F, K30S, D31S, I34M, P53H, S59I, V102M
# VL: B1 VL with S24R, S52N, A54Q
# B39: suPAR_DB06_C10 (scFv, V domains shown)
# VH: B24 VH with F27Y, N28T, I29F, K30S, D31A, I34M, E54S, S59I
# VL: B1 VL with S52N
# B40: suPAR_DB06_D07 (scFv, V domains shown)
# VH: B1 VH with G31N, Q32Y, I34M, S54E, S57N, D61A, G98R
# VL: B1 VL with S52N
# B41: suPAR_DB06_B12 (scFv, V domains shown)
# VH: B1 VH with G31N, Q32Y, I34M, H53P, S54E, S57N, G98R
# VL: B1 VL with S52N
# Target: T1, human soluble urokinase plasminogen activator receptor (suPAR) (human, UniProt Q03405 23-303, limits assumed)
# T1 construct: Column head says only 'human'; also called human suPAR; hsuPAR
# Assay: BLI (Octet) off-rate screen of scFv clones
# T1 sequence (Q03405 23-303 limits assumed): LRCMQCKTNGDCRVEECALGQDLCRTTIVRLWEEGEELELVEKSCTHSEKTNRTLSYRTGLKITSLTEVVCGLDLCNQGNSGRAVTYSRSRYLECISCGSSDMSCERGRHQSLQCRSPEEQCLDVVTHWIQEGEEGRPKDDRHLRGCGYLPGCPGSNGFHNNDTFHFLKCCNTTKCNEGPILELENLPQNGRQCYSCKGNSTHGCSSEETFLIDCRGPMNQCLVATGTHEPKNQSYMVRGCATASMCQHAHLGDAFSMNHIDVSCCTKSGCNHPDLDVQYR
row,Binder,koff [s⁻¹]
1,B1,0.00315
2,B2,0.00552
3,B3,0.00179
4,B4,0.00438
5,B5,0.00371
6,B6,0.00594
7,B7,0.00442
8,B8,0.00675
9,B9,0.00346
10,B10,0.00367
11,B11,0.00395
12,B12,0.00504
13,B13,0.00106
14,B14,0.00242
15,B15,0.00137
16,B16,0.00448
17,B17,0.00613

# Target: T2, cynomolgus soluble urokinase plasminogen activator receptor (suPAR) (cynomolgus, UniProt Q9GK78 23-303, limits assumed)
# T2 construct: Column head says only 'cynomologus'; also called cynomolgus suPAR; cynomolgus uPAR
# Assay: BLI (Octet) off-rate screen of scFv clones
# Target sequence in this assay (Q9GK78 23-303 limits assumed): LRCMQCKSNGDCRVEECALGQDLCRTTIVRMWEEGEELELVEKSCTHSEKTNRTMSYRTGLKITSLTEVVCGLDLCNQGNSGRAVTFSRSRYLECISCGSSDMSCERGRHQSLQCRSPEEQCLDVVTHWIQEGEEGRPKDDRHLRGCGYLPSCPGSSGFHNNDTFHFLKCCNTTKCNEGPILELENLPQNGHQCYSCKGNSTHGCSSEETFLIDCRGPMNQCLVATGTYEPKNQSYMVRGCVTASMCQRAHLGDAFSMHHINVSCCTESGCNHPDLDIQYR
row,Binder,koff [s⁻¹]
1,B1,0.000218
2,B2,0.000189
3,B3,0.00048
4,B4,5.19e-05
5,B5,0.000584
6,B6,0.000524
7,B7,0.00021
8,B8,0.000215
9,B9,0.00025
10,B10,0.000286
11,B11,0.000103
12,B12,0.000492
13,B13,0.000375
14,B14,0.000125
15,B15,0.000132
16,B16,9.86e-05
17,B17,0.000161

# Target: T3, cynomolgus soluble urokinase plasminogen activator receptor (suPAR) (cynomolgus, UniProt Q9GK78 23-303, limits assumed)
# T3 construct: Target antigen of the scFv off-rate screen; also called cynomolgus suPAR; cynomolgus uPAR
# Assay: BLI (Octet) off-rate screen of scFv clones
# Target sequence in this assay (Q9GK78 23-303 limits assumed): as above
row,Binder,koff [s⁻¹]
1,B18,0.000455
2,B19,0.000589
3,B20,7.52e-05
4,B21,0.000439
5,B22,0.000631
6,B23,0.000715
7,B24,0.00037
8,B25,0.000332
9,B26,0.000128
10,B27,0.00023
11,B28,0.000222
12,B29,0.000587
13,B30,0.000365
14,B31,0.00025
15,B32,0.000341
16,B33,0.000566
17,B34,0.000387
18,B35,0.000189
19,B36,1.49e-05
20,B37,0.000261
21,B38,0.000388
22,B39,0.00048
23,B40,0.000565
24,B41,0.000293

# Target: T4, human soluble urokinase plasminogen activator receptor (suPAR) (human, UniProt Q03405 23-303, limits assumed)
# T4 construct: Target antigen of the scFv off-rate screen; also called hsuPAR; human suPAR
# Assay: BLI (Octet) off-rate screen of scFv clones
# T4 sequence (Q03405 23-303 limits assumed): as the sequence (Q03405 23-303 limits assumed) above
row,Binder,koff [s⁻¹]
1,B18,0.00402
2,B19,0.00189
3,B20,0.00484
4,B21,0.0021
5,B22,0.00201
6,B23,0.00166
7,B24,0.00201
8,B25,0.00347
9,B26,0.00489
10,B27,0.00422
11,B28,0.00558
12,B29,0.00141
13,B30,0.00425
14,B31,0.00311
15,B32,0.00149
16,B33,0.00382
17,B34,0.00495
18,B35,0.00515
19,B36,0.00233
20,B37,0.00406
21,B38,0.00541
22,B39,0.00599
23,B40,0.00244
24,B41,0.00203
